# Assay: soluble on expression in E. coli; label from the status in PepcDB or PDB records
row,Sequence,soluble on expression in E. coli
1,MASYLPSEWQDDLKMNGLMSVMKERHVNKVDYDRKLRFWTDAIYGSCIGEKNATFNLLELKKRFRRNDRVPASLDVILDHLKKKGDVITIGEWRDRHSSWVGWGFSKTKGWMFGASSDSEQLLHLPTIKKLGQEILDIYNEELRSEIDCTGEVVTYNEMFDRASNIISKIETFDIVLEHLNDIGELTVGTTRNGEKVLKFKDNGSEDPVKFTEADASVVDIRKAMNKLDREIQQLEQKVKKYDEQCRACLRTGDKGRAQNFLRQRKRAEKDIADKDVQYQKLLTMLHQISSAKNNKDVLQAYKSGTAAFKATLARQGLSPDKIHETMDDVVNSMDEYKEIEEAISSPFVNANGFNDADLEQELEDLISDNKKNESVHLPEAPTNRFGLFDKEVTPEEDQLEKRLARLRQAI,not soluble
2,MATALYTANDFILISLPQNAQPVTAPGSKTDSWFNETLIGGRAFVSDFKIPEFKIGSLDTLIVESEELSKVDNQIGASIGKIIEILQGLNETSTNAYRTLPINNMPVPEYLENFQWQTRKFKLDKSIKDLITLISNESSQLDADVRATYANYNSAKTNLAAAERKKTGDLSVRSLHDIVKPEDFVLNSEHLTTVLVAVPKSLKSDFEKSYETLSKNVVPASASVIAEDAEYVLFNVHLFKKNVQEFTTAAREKKFIPREFNYSEELIDQLKKEHDSAASLEQSLRVQLVRLAKTAYVDVFINWFHIKALRVYVESVLRYGLPPHFNIKIIAVPPKNLSKCKSELIDAFGFLGGNAFMKDKKGKINKQDTSLHQYASLVDTEYEPFVMYIINL,soluble
3,MATDTSSPKHEPIIIAVEPYGGSVRDHSPLLPLVYWDDAAVTRGDGVFETILFRHGRACNLERHAQRFRESAVLLDLPEPRLDHWVHATSMAVEKWFQQSESDAKCVWTYTRGRASTGHPSAWLTITAVPDCVIEQREQGVRVMTTPRGYHIDTSNSVPWVVIGAKTLNYASNMAALRWAKKEGFDDVIFTEQDRILEGATSTVVTFRGNKIRSPFPGGDVLPGTTQAALFDYATNLGWNCKLKDMDEVYLTEKADSVWLISSVRGATRVRRINDTKLPRPDNESEIRELIEAALTAL,not soluble
4,MATEQHLRQQLAAAYRLAALFGWEDTLYTHFSVRLPGDGEPRFLINPFGMMFDEVTASNLIVVDMQGKVVAGDAPANSAGFTIHSAVHMAREDAHCVIHTHTLPGMAVAACEDGLLQLNQISTEFYQRVGYHPYEGVAFDLDERARIQRSLGNNIAMILQSHGLLSVGRTVADAFYIMYYLNRACEIQMATAQLAALSPIHTIAPHLSQHACEQLMGVEHERQQVWQAWLRRLDRLDTSYKD,not soluble
5,MATFGFLSAPLKSTNEVDLVKPLTSYIDNVYNTSDNNRSDVAEAVQELNKLRSKACCQPLDKHQSALDVLTRYYDQLVAIENKIIISATQNPVVFKWKDAFDKGSLFSSRASLSLSDGSFERAAVLFNIGSLMSQIGAAQQFHTDDEIKVSAKLFQQSAGVFARLRDVVLGMVQQEPTPDLMPDTLAALSALMTAQAQEAIYIKGHKDKMKATSMVKISAQVAEFYSEAQKMMSKDIVRGLWDKDWSAIVSGKNLAYQALAQYHQSEVCGEARQIGEQLSRLAESLKLFDTAQKYLPRDITGIWDIYPSVSKAHAAAKKDNDFIYHEKVSDFRTLPTLPKAVLAKPTPMQTPMTPSFRDMFAVLVPVQVHNAMQSYDARKAELVNMETVRMREATQLMNGVLASLNLPAALDDVTSTETLPESLKLKSAKLKQNGGSSEIMRLFSELPTLYQRNEDILTETSRILNEEKESDDTMRKQLGTKWTRMSSEQLTGPLVTEIGKYRGILHTASNADKMVKEKFESHRQGIELLSKNESELRSSIPGQTAHATGETDTVRQLRQFMSQWNEVTTDRELLEKELKNTNCDIANDFLKAMAENQLINEEHISKEKIAQIFGDLKRRVQSSLDTQETLMNQIQAANNTFTGEKTGSSTGAERERILKMLAQASDAYVELKANLEEGTKFYNDLTPILVRLQQKVSDFAFARQTEKEDLMRQLQLSIVSGTNAAQSPANAPPRPPPPRPAAPSVESPIPPPRTQQSMQATPGAPPQYNPYQQQQQPQMQQFQQHPGYYQQPMPYGQPQPMFQPQYQPTFAAPYPTFPGAFPSYQQQWPQQQQQGGFPPNPQFGQQNQQQGGGGGANPFQ,not soluble
6,MATITDIAKVANVSISTVSRVLNYDPNLSVTEETKRKIFEAAETLNYTKYKTKNKNKQQEQLTPNLSVQTAPQEPSIAVVQWRSDDEELTDIYYMSIRLGAEKRAEELGYNILKVSQLEQHNLQGIDGILAIGKFTQKTLQELQQLHPNLCVIGSNFPLEEFDSVNTDFYQATEIALTHLLELGHEKIAFIGAEESENMYGFRRYKTPTTNAYLDIMQHYHLFNEDYFILKENGMLDVKTGEQLTEEALEKWGNDLPTAILAYNDAFAIGVIHTLAAHGIKVPEEISVMGINDISISQYVSPPLSSVHAFTEEMGETGINLLHKRIQMPSIPRRVLLNTELVVRQSTTSPRQK,soluble
7,MATKEFYFAIIGHCDQPIFEMDFPVGEKKTKESEGTRHLNHYIGHAALDIVDEHALTTSQMYLKMVDKFNEWYVSAFVTASRIRFIMLHTHRADEGIKQFFQEMYETYIKHAMNPFYEIDDVIESPAFEQKATLYGRKYLS,not soluble
8,MATNESIMTLPLASKFKAEARAMADRGLSTYEAVYQLNKLEEQDKPRADAIMALDESGDYQPLLRAMANVPCIDVGTAKSILSMTIEQERPKVAPELTAAFENFMDMHSPQAVSAGMAYDGRNQGDDGDIDRILKTI,soluble
9,MATPVPLVFNAPKRGMPPTHFADLNDEARIEALKELGLPKFRLNQIARHYYGRLEADPLTMTDLPEGARQEVKDALFPTLMSPLRVVETDDDTTQKTLWKLHDGTLLESVLMRYSDRSTLCISSQAGCGMACPFCATGQGGLDRNLSIGEIVDQVRNAAATMQSEGGRLSNIVFMGMGEPLANYKRVVSAVRQITQPSPAGFGISQRSVTVSTVGLAPAIRKLADEEMSVTLAVSLHTPDDELRDTLVPVNNRWPVAEVLDAARYYADKSGRRVSIEYALIRDVNDQDWRADMLGEKLHKALGSRVHVNLIPLNPTPGSKWDAAPKARQDEFVRRVIAKGVPCTVRDTKGQEIAAACGQLAAEESA,not soluble
10,MATSFYTGGGEDGDGFNPRVHARIAEREGFQLASGSEDPRTLFVANLDPAITDEFLATLFNQIGAVMKAKIIFEGLNDPYAFVEFSDHNQATLALQSHNGRELLEKEMHVTWAFEPREPGENRSKPETSRHFHVFVGDLCSEIDSTKLREAFVKFGEVSEAKIIRDNNTNKGKGYGFVSYPRREDAERAIDEMNGAWLGRRTIRTNWATRKPDEDGERGGDRGDRRGGGGGGRDRYHNQSEKTYDEIFNQAAADNTSVYVGNIANLGEDEIRRAFDRFGPINEVRTFKIQGYAFVKFETKESAARAIVQMNNADIGGQIVRCSWGKSGDSGKPSERGSGGGGGSGNYGYGYGNSGGGGGSGGPGNSQFSNFNQRPPPSGNGGSGGGSGGQNNQYWQYYSQYYNNPHLMQQWNNYWQKDGPPPPPAAAASSTGGN,not soluble
11,MATYRKSRAFAPEGFFECEGRGLEWLGAAHAQGGPRVVQVYGWGKDYLDIERVGSASPTPQAARAFGAALARMHDAGAKYFGSAPDGYNGTCYFGPLQDPVKMDTGEWTDPISYFADGRLRPMVNLGVKRGELDKRDVELTERVIEALPDLMGRAAADKPARIHGDLWSGNVMWTADSGQSEAVLIDPAAHGGHREEDLAMLHLFGMSYLSEITEGYQSVHPLKAGWQERITLWQLYPIAGHCVFFGGGYVNEYRSMCRSLLKLEHHHHHH,not soluble
12,MAVAGFSPIKLIWKNSRHDLVLAGQAGLSYKNNNYLYMDVDNKHAMARTYANGKFSLGARMAYEYRISNTLGAGATATYEFGGEVFAALATFNVHF,not soluble
13,MAVELNQLRDQIDEVDKQMVELLARRLALVEQVGQVKSRYGLPIYAPDREAAMLASRRAEAESKGVPPQLIEDILRRTMRESYASEKDSGFKCLNPELRSVVIVGGNGQLGRLFGRMFKLSGYQVKVLGSQDWDKADELLSDAGLVVVTVPIHLTLGVIEKLRQLPDDCILCDLTSIKAKPLAAMLQVHKGPVVGLHPMFGPDVPSLAKQVIVYCDGRGNEHYQWLLQQFAIWGASLCQIDADEHDRGMTLIQALRHFTSFAYGLHLTKENPNLAQLLKLSSPIYRLELAMVGRLFGQDPHLYGDIILSSPENIEMIQRFHRCLSDAVELVSAGDKASFVAQFERVSQWFGDYSQQFMHESQNLLKQANDAIHRG,not soluble
14,MAVRFIREDGDEILRKVSKKVDVIDERIKTLLDDMAETMYAANGVGLAAPQVGVLKRVVVIDVGDGLMELINPEIVEQEGEQIDIEGCLSIPGVAGEVKRPARVVVEALNREGEKITVEGKELLAVALCHEIDHLDGILFTDKVIRFIDEDEMERRRENKRRNKIRQNKG,not soluble
15,MAVVFKKTEGLQDTQTHYCPGCTHGIIHRLVGEVLEELGVLGDAVGVVPVGCSVLGYKYFNCDTQEAAHGRAPAAATGIKRVHPENTVFTYQGDGDLASIGTAEIVHAAARGEKITTIFVNNTTYGMTGGQMAPTTLVGQRATTAQSGRNAETQGYPIRVSEMLATLTGAVFVERVAVDTPAHVRQAKKAIKKAFQVQQAGLGFGIVEVLSTCPTNWGLAPNDALQWLRDNMIPYYPLGNFKNVEVEEVK,not soluble
16,MAVYLDFENHIKEIQNEIELALIRGDEDAKEILEKRLDKEVKSIYSNLTDFQKLQLARHPDRPYAMDYIDLILKDKYEVFGDRHYNDDKAIVCFVGKIDNVPVVVIGEEKGRGTKNKLLRNFGMPNPCGYRKALKMAKFAEKFNLPILMLVDTAGAYPGIGAEERGQSEAIAKNLQEFASLKVPTISVIIGEGGSGGALAIAVADKLAMMEYSIFSVISPEGCAAILWDDPSKTEVAIKAMKITPRDLKEAGLIDDIILEPSKGAHRDKFSAANTIKEYFLDALRTIQQDPHFLDNRYQKLMSLGSFVESMN,soluble
17,MAYCNPGLESRPNKRNALRRHVVTGIGMKIVIAPDSYKESLSASEVAQAIEKGFREIFPDAQYVSVPVADGGEGTVEAMIAATQGAERHAWVTGPLGEKVNASWGISGDGKTAFIEMAAASGLELVPAEKRDPLVTTSRGTGELILQALESGATNIIIGIGGSATNDGGAGMVQALGAKLCDANGNEIGFGGGSLNTLNDIDISGLDPRLKDCVIRVACDVTNPLVGDNGASRIFGPQKGASEAMIVELDNNLSHYAEVIKKALHVDVKDVPGAGAAGGMGAALMAFLGAELKSGIEIVTTALNLEEHIHDCTLVITGEGRIDSQSIHGKVPIGVANVAKKYHKPVIGIAGSLTDDVGVVHQHGIDAVFSVLTSIGTLDEAFRGAYDNICRASRNIAATLAIGMRNAG,soluble
18,MAYDGLFTKKMVESLQFLTTGRVHKINQPDNDTILMVVRQNRQNHQLLLSIHPNFSRLQLTTKKYDNPFNPPMFARVFRKHLEGGIIESIKQIGNDRRIEIDIKSKDEIGDTIYRTVILEIMGKHSNLILVDENRKIIEGFKHLTPNTNHYRTVMPGFNYEAPPTQHKINPYDITGAEVLKYIDFNAGNIAKQLLNQFEGFSPLITNEIVSRRQFMTSSTLPEAFDEVMAETKLPPTPIFHKNHETGKEDFYFIKLNQFNDDTVTYDSLNDLLDRFYDARGERERVKQ,soluble
19,MAYFALGLATATKNRDGKIIEAFFPTPILAPSDALVAALAPIAGYQEGNQALDITAAQSAQLAAVFAAHQQAASAAFADKAANAKQPLVLVILASDDKPQSVAEGYLKLQLISHRLVKPHGTVLDGIFGLLHNIAWTNEGPIDLPELAERQIEARLAGRVLTVDCVDKFPKMVDYVVPAGIRIADTSRVRLGAHVGEGTTVMHEGFINFNAGTTGVSMVEGRISAGVVVGNGSDIGGGASIMGTLSGGGKVVVSIGENSLLGANAGLGFPLGDRCTVESGLYVTAGTKVRTLDKDGNQVDIVKARDLAGVSDLLFRRNSLTGQIECLANKSAVELNSELHKNN,not soluble

# — the DeepSol protein solubility set
